The target in assay [1] is VpsO-503^(E519A, R522A, R525A) kinase domain. The experiment in a line: SEC-MALS; 25 uL of each VpsO protein at 1.5 mg/mL injected on a silica-based SEC analytical HPLC column; 25 mM Tris pH 8.0, 50 mM NaCl, 1 mM DTT; room temperature.
Assay [2] has as its target VpsU, low-molecular-weight phosphotyrosine protein phosphatase. Description: SEC.

In assay [1], “VpsO-503^(E519A, R522A, R525A) kinase domain (domain or fragment)” came in with a stoichiometry N of 2.

On to “VpsU, low-molecular-weight phosphotyrosine protein phosphatase (enzyme)”, for which the stoichiometry N in assay [2] was 2.

(Values after PMC7485978, “A tyrosine phosphoregulatory system controls exopolysaccharide biosynthesis and biofilm formation in Vibrio cholerae” (PLoS Pathogens, 2020).)
